Earlier results on one substance are cited in patent US11795217B2, “Interleukin-1 inhibition for combination treatment of pancreatic cancer cachexia” (Cedars-Sinai Medical Center, priority 2018, dated 2023).

Data set [1] has as its system patients with refractory cancers.
The test system of data set [2] is patients with metastatic colorectal cancer.
Data set [3] relates to patients with advanced cancer and cancer-associated symptoms. The settings on record: in vivo, 7.5 mg/kg.

Regarding bermekimab, the “patients with a positive DXA outcome as defined for the responder endpoint” value in data set [1] (61 patients) is recorded as 62 % of evaluable patients. For the same substance, in data set [1] (every 2 weeks, dose escalation study), the minimum effective dose is on record as 3.75 mg/kg. Also, in data set [1] (human, in vivo), the dose limiting toxicity result is listed as “no dose limiting toxicity”, the “grade ¾ toxicities: fatigue” value is on record as 13%, the “grade ¾ toxicities: nausea” value was 13% and the “grade ¾ toxicities: proteinuria” value is 21%. The “average LBM (lean body mass) change” value in data set [1] (patients with positive DXA outcome) was 2.1 ± 2.8 kg. In data set [2] (309 patients, randomized 2:1, placebo 19%, p=0.0045), the “response to treatment (primary outcome)” value is 33%. The “relative reduction in the number of SAEs” value in data set [2] (human, in vivo) is reported as 26%. Moreover, the drug-related toxicities result in data set [3] is “no definite drug-related toxicities”.
